Patent US20250352589A1, “OXYTOCIN-MIMETIC COMPOSITIONS AND USES THEREOF” (INSTITUT NATIONAL DE LA SANTÉ ET DE LA RECHERCHE MÉDICALE, priority 2021, published 2025)

B1: Prolable phosphoketolase (protein, listed as Bifidobacterium pseudolongum)
chain: MTNPVIGTPWQKLDRPVSEEAIEGMDKYWRVTNYMSIGQIYLRSNPLMKEPFTRDDVKHRLVGHWGTTPGLNFLLAHINRLIADHQQNTVFIMGPGHGGPAGTSQSYVDGTYTEYYPNITKDEAGLQKFFRQFSYPGGIPSHFAPETPGSIHEGGELGYALSHAYGAVMNNPSLFVPCIIGDGEAETGPLATGWQSNKLVNPRTDGIVLPILHLNGYKIANPTILARISDEELHDFFRGMGYHPYEFVAGFDNEDHMSIHRRFAELFETIFDEICDIKAAAQTDDMTRPFYPMLIFRTPKGWTCPKFIDGKKTEGSWRAHQVPLASARDTEEHFEVLKGWLESYKPEELFNADGSIKDDVTAFMPKGDLRIGANPNANGGVIREDLKLPELDQYEVTGVKEYGHGWGQVEAPRSLGAYCRDIIKNNPDSFRIFGPDETASNRLNATYEVTDKQWDNGYLSSLVDEHMAVTGQVTEQLSEHQCEGFLEAYLLTGRHGIWSSYESFVHVIDSMLNQHAKWLEATVREIPWRKPISSVNLLVSSHVWRQDHNGFSHQDPGVTSVLINKTFNNDHVTNIYFATDANMLLAISEKCFKSTNKINAIFAGKQPAPTWITLDEARAELEAGAAEWKWASNAENNDEVQVVLAAAGDVPTQEIMAASDALNKMGIKFKVVNVVDLLKLQSRENNDEALTDEEFTDLFTADKPVLFAYHSYAQDVRGLIYDRPNHDNFNVVGYKEQGSTTTPFDMVRVNDMDRYALQAAALKMIDADKYADKIDELNAFRQKAFQFAVDNGYDIPEFTDWVYPDVKVDETQMLSATAATAGDNE
modifications: Probable phosphoketolase
notes: protein expressed by Bifidobacterium pseudolongum subsp. globosum
B2: GMP synthase (protein, listed as Lactobacillus plantarum)
chain: MAKTDTASFDSILVLDFGSQYNQLITRRIRDFGVYSELLPNTITAEEIKARHPKGIIFSGGPNSVYDDGAFRVDPEIFKLGLPILGICYGMQLMTYTLAGGKVESADNREYGKANIDVTSDSATLFKDTPAEQSVWMSHGDLVTQAPDGFDVVATSKNCPIAAIQDVDRKLYGIQFHAEVRNTDYGNDILRHFAFDVCQAEANWSMDDFIDMQIEKIRAEVGDKKVLLGLSGGVDSSVVGVLLHKAIGTQLTSIFVDHGLLRKGEADQVMASLEGKFGLNIIKVDAKDRFLSKLAGVSDPERKRKIIGNEFIQVFDEEATKLNGMEFLAQGTLYTDVIESGTSTAQTIKSHHNVGGLPEDMQFKLIEPLRTLFKDEARELGEKLGMPSDLVWRQPFPGPGLGIRVIGEITEDKLEIVRDSDFILRDEIKKAGLDREIWQYFTVLPGIKSVGVMGDGRTYDYTVGIRAVTSIDGMTADFARIPWDVLQKISVRIVNEVDHVNRIVYDVTSKPPSTIEWE
modifications: GMP synthase
notes: protein expressed by Lactobacillus plantarum
B3: Glutamine-fructose-6-phosphate aminotransferase (protein, listed as Lactobacillus plantarum)
chain: MCGIVGVTGKDSAVSILLNGLEKLEYRGYDSAGIYVNDQDGHDYLVKEKGRIDDLRKEVGEAVHGSTGIGHTRWATHGEPSVANAHPQVSADGRFYLVHNGVIENFEDLKQTYLSDVTFKSQTDTEVIVQLVDRFVTKEGLSTLAAFRKTLGLLGHSSYGFLLMDKEDPDTLYVAKNKSPLLIGVGEGFNVVCSDSLAMLDQTKDFLELHDGEIVVVKPDEIKITNQAGEPVERKPFHVDIDAAQADKGTYPFYMLKEIDEQPNVMRKLSQVYLNDAGDPIINDDLLTALKAADRLYIVAAGTSYHAGLVGAKLFESLANVPTEVHVSSEFAYNQPLLSAHPFFIFLTQSGETADSREVLLNVNDQHFPSLTITNVPNSTLSREATYTLLLHAGPEIAVASTKAYTAQIALQAILAKALGVAVDQPAATAFDVKQQLALVANGMQSLVDEKATFEKIAKSALLNTPNAFYIGRGLDYAVSLETALKLKEISYVQAEGFASGELKHGTIALIEKDTPVIGIITQKNTAGLTRSNLQEVAARGAKTVTIVTDSLAKDGDTVILPTVDERLTALLSVVPGQLLAYYTSLNKGLDVDKPRNLAKSVTVE
modifications: Glutamine-fructose-6-phosphate aminotransferase
notes: as for B2
B4: Enolase 1 (protein, listed as Lactobacillus gasseri)
chain: MLKSVIENVHALEIFDSRGNPTVEVFVTLSNGVVGKAEVPSGASTGENEAVELRDGGSRLGGKGVMNAVNNVNTEINDALKGLDPHDQPNIDATMIALDGTPNKGRLGANAILGVSMATACAAAKDNHQPLYRYLGGTDLEMPQTFHNVINGGEHADNGIDIQEFMITPVAKTSFRDGFEKIVNVYHTLKKVLEDMGYETGLGDEGGFAPNMKNSEEALKALHESIIKAGYKPGEDIAIACDCAASYFYNKEDGKYHLEGKVLTDEELADYYDKLLDEFPELISMEDPYDENDVEGMVKFTESHKDRIQIVLDDFICTNPKLLNKAIHEGAGNASLIKLNQIGTVTETLETIRLSRKNGYNTMISHRSGETGDTFIADFAVAVNGGQLKSGAPARSERVEKYNRLLEIEEELGKGERLAFFPDNVDLD
modifications: enolase1
notes: protein expressed by Lactobacillus gasseri
B5: Phosphoketolase (protein, listed as Bifidobacterium dentium)
chain: MTSPVIGTPWKKLNAPVSEEAIEGVDKYWRAANYLSIGQIYLRSNPLMKEPFTREDVKHRLVGHWGTTPGLNFLIGHINRLIADHQQNTVIIMGPGHGGPAGTAQSYLDGTYTEYFPNITKDEAGLQKFFRQFSYPGGIPSHYAPETPGSIHEGGELGYALSHAYGAVMNNPSLFVPAIVGDGEAETGPLATGWQSNKLVNPRTDGIVLPILHLNGYKIANPTILSRISDEELHEFFHGMGYEPYEFVAGFDNEDHLSIHRRFAELFETVFDEICDIKAAAQTDDMTRPFYPMIIFRTPKGWTCPKFIDGKKTEGSWRSHQVPLASARDTEAHFEVLKNWLESYKPEELFDANGAVKPEVTAFMPTGELRIGENPNANGGRIREELNLPALEDYEVKEVAEYGHGWGQLEATRRLGVYTRDIIKNNPDSFRIFGPDETASNRLQAAYDVTNKQWDAGYLSAQVDEHMAVTGQVTEQLSEHQMEGFLEAYLLTGRHGIWSSYESFVHVIDSMLNQHAKWLEATVREIPWRKPISSMNLLVSSHVWRQDHNGFSHQDPGVTSVLLNKCFNNDHVIGIYFPVDSNMLLAVAEKCYKSTDMINAIIAGKQPAATWLTLDEARAELEKGAAEWEWASTAKSNDEAQIVLASAGDVPAQEIMAAADKLDAMGIKFKVVNVVDLVKLQSTKENDEAISDADFADLFTEDKPVLFAYHSYARDVRGLIYDRPNHDNFNVHGYEEQGSTTTPYDMVRVNNIDRYELVAEALRMIDADKYADKIDELEAFRKEAFQFAVDNGYDHPDYTDWVYSGVNTNKQGAVSATAATAGDNE
modifications: phosphoketolase
notes: protein expressed by Bifidobacterium dentium
B6: Phosphoglycerate kinase (protein, listed as Bifidobacterium dentium)
chain: MKTLKDLGDLKGKRVLVRADFNVPLDGTTITDDGRIKAALPTIKALREEGAKVILMAHLGRPKGKVVPELSLAPVATRLGELLGVEVPLASDTYGEDAQAKVAAMNDGDVVLLQNVRFNPEETSKDPEERAAYAKKIAALGEAFVSDGFGVVHRAQGSNYDVAADLPAAAGLLVEKEVKALSRATVDPERPLTVVLGGSKVSDKLGVIENLLDKADRLVIGGGMVYTFLKAKGLEVGTSLLEEDQVETVKGYIERAEKNGVELVLPTDIVVNPVFPKSDEDIAPEVVAADAIPADKMGLDIGPDSQKLFHDKIVDSKTVVWNGPMGVFEVPAFAAGTEAVAQGLVDATAAGAFTIVGGGDSASAVRNLGFPEDGFSHISTGGGASLEFLEGKELPGLKVLD
modifications: Phosphoglycerate kinase
notes: as for B5

Columns and labels:
human OT-R = target: T1, human OT-R (Homo sapiens, UniProt P30559); experiment: Activation of OT-R by bacterial peptides: calcium release from HEK cells transfected with human OT-R; assay type: cell-based; conditions: OTR expressing HEK cells
T1 construct: expressed in transfected cells; host or cells: HEK cells
T1 sequence (P30559 1-389): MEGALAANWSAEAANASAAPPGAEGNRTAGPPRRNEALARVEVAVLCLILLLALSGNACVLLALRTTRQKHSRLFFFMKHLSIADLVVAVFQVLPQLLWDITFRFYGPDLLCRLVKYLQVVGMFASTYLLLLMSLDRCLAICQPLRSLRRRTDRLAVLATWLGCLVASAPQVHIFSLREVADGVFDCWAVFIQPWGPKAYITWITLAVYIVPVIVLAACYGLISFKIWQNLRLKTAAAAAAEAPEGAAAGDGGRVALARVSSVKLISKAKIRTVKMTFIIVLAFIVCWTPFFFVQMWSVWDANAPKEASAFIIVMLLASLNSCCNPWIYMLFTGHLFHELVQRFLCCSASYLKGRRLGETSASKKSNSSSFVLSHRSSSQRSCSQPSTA

[1] = tested on: non-transfected HEK cells; experiment: Negative control: activation of non-transfected HEK cells; assay type: cell-based
Method: The activation of OT-R by bacterial peptides was analyzed by the measurement of calcium release from HEK cells transfected with human OT-R
As a negative control, no activation of non-transfected HEK cells with OT or bacterial peptides was observed.

anti-oxytocin antibodies = experiment: Proteomic analysis: 2D gel and OT immunodetection (OT IgG) of bacterial proteomes; assay type: binding; conditions: 2D-immunoblotting, spots identified by mass spectrometry
Method: In this study, 14 bacteria-extracted proteomes were analyzed: (i) from 5 Bifidobacterium species grown in anaerobe conditions, (ii) from 5 Lactobacillus species grown in anaerobe culture conditions and (iii) from 4 aerotolerant Lactobacillus species grown in aerobe conditions. Each proteome analysis was performed in triplicate and was further separated in 3 fractions i.e. soluble (S), membrane (M), and residual (R) resulting in 9 samples/proteome). Each fraction was initially screened by western blot (WB) for the presence OT-like reactivity to validate it for further 2D-SDS-PAGE analysis. […] Finally, all fractions have been analyzed using 2D gel technique and OT immunodetection. 2D gel electrophoresis allowed to improve visibility of the less abundant proteins in a complex sample. Thereby, all samples were analyzed at least once with this method to scan optimally each proteome in the search for OT mimicry. […] The specificity for OT-like staining was controlled by pre-adsorption of OT-IgG with OT peptide.
All protein spots in silver nitrate staining gels corresponding to OT-like spots in the membrane were excised and analyzed by mass spectrometry

Row | Molecule | specific activation of OTR (human OT-R) | activation of non-transfected HEK cells [1] | immune cross-reaction with anti-oxytocin antibodies (anti-oxytocin antibodies)
1 | CC[C@H](C)[C@@H]1NC(=O)[C@H](Cc2ccc(O)cc2)NC(=O)[C@@H](N)CSSC[C@@H](C(=O)N2CCC[C@H]2C(=O)N[C@@H](CC(C)C)C(=O)NCC(N)=O)NC(=O)[C@H](CC(N)=O)NC(=O)[C@H](CCC(N)=O)NC1=O [OT, Oxytocin] | specifically activated OTR | no activation | –
2 | B1 | – | – | immune cross-react with anti-oxytocin antibodies
3 | B2 | – | – | immune cross-react with anti-oxytocin antibodies
4 | B3 | – | – | immune cross-react with anti-oxytocin antibodies
5 | B4 | – | – | immune cross-react with anti-oxytocin antibodies
6 | B5 | – | – | immune cross-react with anti-oxytocin antibodies
7 | B6 | – | – | immune cross-react with anti-oxytocin antibodies
